{
  "source": "patent US20220280440A1",
  "about": "“METHOD FOR THE MANUFACTURE OF A DOSAGE FORM WITH MUCOADHESIVE PROPERTIES FOR BUCCAL ADMINISTRATION OF BIOLOGICS” (UNIVERSIDAD DE CHILE, priority 2016, published 2022)",
  "key": {"[1]": {"assay": "Effect of the inkjet printing process on nanosystems (properties before and after printing on inert substrate)", "type": "physicochemical", "conditions": "lysozyme in nanoparticles", "method": "The process of printing on an inert substrate using a suspension with a nanosystem as carriers of biologic drug models was performed using polymeric nanoparticles. The suspension was incorporated into a cartridge for inkjet printing. The particle properties were measured before and after the printing process. […] Results are expressed as means (standard deviation). Except for an increase in the polydispersity index (PDI), the particles maintain their properties during the printing process and define the methodology for incorporating drug loaded nanoparticles on polymer films.\nThe obtained printing inks with lysozyme or insulin were loaded into Hewlett Packard cartridges compatible with Hewlett Packard Deskjet 1000 printer, and it was installed to run the printing experiments. Using a commercial software tool appropriate for the task, surfaces of 3×3 cm^2 were printed on an inert substrate to evaluate the effect of the printing process on the polymeric nanoparticles. After the printing process, the printed polymeric nanoparticles were recovered by refluxing with 1 mL of Milli-Q® water, and their physicochemical properties in terms of size, polydispersity index, and zeta potential were determined."}, "[2]": {"assay": "FTIR of lysozyme inks with or without glycerol", "type": "physicochemical", "conditions": "FIG. 13", "method": "On the other hand, since these inks require the addition of glycerol as a viscosity agent, the evaluation of lysozyme inks was performed with or without glycerol by infrared spectroscopy Fourier transform (FTIR)."}},
  "data": [
    {"substance": "lysozyme", "values": [
      {"measurement": "Amount immobilized at the particle and biologic structure during the printing process (load and protein activity studies)", "setting": "[1]", "result": "preserved during the printing process"},
      {"measurement": "Major bands of the FTIR spectra, ink with or without glycerol", "setting": "[2]", "result": "does not change during the process"}
    ]}
  ]
}
